The values below come from IntAct's records for PubMed 31515488.

The labels stand for the following.
B1: Transcriptional repressor p66-beta (Homo sapiens), Q8WXI9 (parent)
chain: MDRMTEDALRLNLLKRSLDPADERDDVLAKRLKMEGHEAMERLKMLALLKRKDLANLEVPHELPTKQDGSGVKGYEEKLNGNLRPHGDNRTAGRPGKENINDEPVDMSARRSEPERGRLTPSPDIIVLSDNEASSPRSSSRMEERLKAANLEMFKGKGIEERQQLIKQLRDELRLEEARLVLLKKLRQSQLQKENVVQKTPVVQNAASIVQPSPAHVGQQGLSKLPSRPGAQGVEPQNLRTLQGHSVIRSATNTTLPHMLMSQRVIAPNPAQLQGQRGPPKPGLVRTTTPNMNPAINYQPQSSSSVPCQRTTSSAIYMNLASHIQPGTVNRVSSPLPSPSAMTDAANSQAAAKLALRKQLEKTLLEIPPPKPPAPLLHFLPSAANSEFIYMVGLEEVVQSVIDSQGKSCASLLRVEPFVCAQCRTDFTPHWKQEKNGKILCEQCMTSNQKKALKAEHTNRLKNAFVKALQQEQEIEQRLQQQAALSPTTAPAVSSVSKQETIMRHHTLRQAPQPQSSLQRGIPTSARSMLSNFAQAPQLSVPGGLLGMPGVNIAYLNTGIGGHKGPSLADRQREYLLDMIPPRSISQSISGQK
B2: Zinc finger CCHC domain-containing protein 10 (Homo sapiens), Q8TBK6 (parent)
chain: MATPMHRLIARRQAFDTELQPVKTFWILIQPSIVISEANKQHVRCQKCLEFGHWTYECTGKRKYLHRPSRTAELKKALKEKENRLLLQQSIGETNVERKAKKKRSKSVTSSSSSSSDSSASDSSSESEETSTSSSSEDSDTDESSSSSSSSASSTTSSSSSDSDSDSSSSSSSSTSTDSSSDDEPPKKKKKK
partner: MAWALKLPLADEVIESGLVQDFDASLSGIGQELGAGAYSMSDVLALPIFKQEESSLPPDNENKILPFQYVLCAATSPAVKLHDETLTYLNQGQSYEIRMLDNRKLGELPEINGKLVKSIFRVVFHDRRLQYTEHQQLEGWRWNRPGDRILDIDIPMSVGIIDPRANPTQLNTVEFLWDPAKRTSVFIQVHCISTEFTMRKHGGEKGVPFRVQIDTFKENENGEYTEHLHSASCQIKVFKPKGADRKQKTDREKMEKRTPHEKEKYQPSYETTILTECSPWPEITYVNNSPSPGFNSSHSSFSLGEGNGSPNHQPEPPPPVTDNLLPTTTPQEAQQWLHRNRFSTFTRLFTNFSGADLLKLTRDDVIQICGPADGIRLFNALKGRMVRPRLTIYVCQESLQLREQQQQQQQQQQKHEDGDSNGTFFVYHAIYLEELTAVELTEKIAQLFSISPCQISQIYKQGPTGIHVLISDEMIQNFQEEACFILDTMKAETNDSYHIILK
B3: Consortin (Homo sapiens), Q6PJW8 (parent)
chain: MDDSDTPTYYLQIEPQDGCHPGDSVERSVTCLPSASDENENQLDGDGHEHLTSSDSAMGKPQVSEQDSLNNNESCTLSCEVAAGENLQNTLCEASRDEQAFLGKDKKIPGKRSPRSKKGTAKKIPPGLFSGDIAPLMQEKVLSAVTYAVDDEEAAEVNANEQPEAPKLVLQSLFSLIRGEVEQLDSRALPLCLHQIAESYFQEEDYEKAMKFIQLERLYHEQLLANLSAIQEQWETKWKTVQPHTVTALRNSEKGFNGEDFERLTKICATHQDPLLSKHKIAAVEKSQERKCSTQLLVSEDPKEGGATTKESESKTCLGTESSKESQHTVEPLGSSPCCHQMDVQTDSPSLSVTAGKDHMEELLCSAEATLALHTQSSETAGSPSGPDSSEDACEDDSRLQLAQTEACQDVARIEGIAEDPKVFLSSKSKTEPLISPGCDRIPPALISEGKYSQAQRKELRLPLRDASEALPTDQLENNELNELQQPDLTDSDGKSPQAQADSDGSENVLCGNNQISDLGILLPEVCMAPEEKGDKDDQLNKETEDYLNSLLEGCLKDTEDSLSYEDNQDDDSDLLQDLSPEEASYSLQENLPSDESCLSLDDLAKRIEIAEVVPTEGLVSILKKRNDTVGDHPAQMQHKPSKRRVRFQEIDDSLDQDEVGGGSCILLVLLCIATVFLSVGGTALYCTFGDMESPVCTDFADNMDFYYTKLLQGVAELKHWIYLS
B4: Tyrosine-protein phosphatase non-receptor type 9 (Homo sapiens), P43378 (parent)
chain: MEPATAPRPDMAPELTPEEEQATKQFLEEINKWTVQYNVSPLSWNVAVKFLMARKFDVLRAIELFHSYRETRRKEGIVKLKPHEEPLRSEILSGKFTILNVRDPTGASIALFTARLHHPHKSVQHVVLQALFYLLDRAVDSFETQRNGLVFIYDMCGSNYANFELDLGKKVLNLLKGAFPARLKKVLIVGAPIWFRVPYSIISLLLKDKVRERIQILKTSEVTQHLPRECLPENLGGYVKIDLATWNFQFLPQVNGHPDPFDEIILFSLPPALDWDSVHVPGPHAMTIQELVDYVNARQKQGIYEEYEDIRRENPVGTFHCSMSPGNLEKNRYGDVPCLDQTRVKLTKRSGHTQTDYINASFMDGYKQKNAYIGTQGPLENTYRDFWLMVWEQKVLVIVMTTRFEEGGRRKCGQYWPLEKDSRIRFGFLTVTNLGVENMNHYKKTTLEIHNTEERQKRQVTHFQFLSWPDYGVPSSAASLIDFLRVVRNQQSLAVSNMGARSKGQCPEPPIVVHCSAGIGRTGTFCSLDICLAQLEELGTLNVFQTVSRMRTQRAFSIQTPEQYYFCYKAILEFAEKEGMVSSGQNLLAVESQ
partner: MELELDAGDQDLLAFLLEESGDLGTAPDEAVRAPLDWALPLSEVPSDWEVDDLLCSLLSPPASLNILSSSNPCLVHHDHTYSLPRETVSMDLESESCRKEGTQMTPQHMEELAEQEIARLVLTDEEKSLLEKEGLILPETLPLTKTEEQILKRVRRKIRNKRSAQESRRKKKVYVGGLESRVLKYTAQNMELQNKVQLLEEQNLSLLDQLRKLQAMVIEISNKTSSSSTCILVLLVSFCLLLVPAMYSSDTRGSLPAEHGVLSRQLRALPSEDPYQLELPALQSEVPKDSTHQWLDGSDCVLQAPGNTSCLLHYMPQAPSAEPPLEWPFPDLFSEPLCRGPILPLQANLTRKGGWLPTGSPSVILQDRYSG
B5: Nuclear protein AMMECR1 (Homo sapiens), Q9Y4X0 (parent)
chain: MAAGCCGVKKQKLSSSPPSGSGGGGGASSSSHCSGESQCRAGELGLGGAGTRLNGLGGLTGGGSGSGCTLSPPQGCGGGGGGIALSPPPSCGVGTLLSTPAAATSSSPSSSSAASSSSPGSRKMVVSAEMCCFCFDVLYCHLYGYQQPRTPRFTNEPYPLFVTWKIGRDKRLRGCIGTFSAMNLHSGLREYTLTSALKDSRFPPMTRDELPRLFCSVSLLTNFEDVCDYLDWEVGVHGIRIEFINEKGSKRTATYLPEVAKEQGWDHIQTIDSLLRKGGYKAPITNEFRKTIKLTRYRSEKMTLSYAEYLAHRQHHHFQNGIGHPLPPYNHYS
partner: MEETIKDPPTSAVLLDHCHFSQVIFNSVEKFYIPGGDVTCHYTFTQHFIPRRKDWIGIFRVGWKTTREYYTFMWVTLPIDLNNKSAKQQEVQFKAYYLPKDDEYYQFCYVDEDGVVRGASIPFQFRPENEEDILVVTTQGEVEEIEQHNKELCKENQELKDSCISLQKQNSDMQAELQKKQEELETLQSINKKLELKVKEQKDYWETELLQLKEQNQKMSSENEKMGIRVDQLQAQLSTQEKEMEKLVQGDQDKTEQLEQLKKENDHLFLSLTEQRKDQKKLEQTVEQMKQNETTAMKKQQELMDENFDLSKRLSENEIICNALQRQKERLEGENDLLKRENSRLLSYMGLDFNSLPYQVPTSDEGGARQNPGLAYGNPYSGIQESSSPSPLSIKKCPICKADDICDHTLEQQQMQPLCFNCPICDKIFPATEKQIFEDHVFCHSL

One assay covers variants of B1. The following applies: with traf1_human TRAF1, Q13077.
Chain of traf1_human TRAF1, Q13077 (Q13077 whole entry): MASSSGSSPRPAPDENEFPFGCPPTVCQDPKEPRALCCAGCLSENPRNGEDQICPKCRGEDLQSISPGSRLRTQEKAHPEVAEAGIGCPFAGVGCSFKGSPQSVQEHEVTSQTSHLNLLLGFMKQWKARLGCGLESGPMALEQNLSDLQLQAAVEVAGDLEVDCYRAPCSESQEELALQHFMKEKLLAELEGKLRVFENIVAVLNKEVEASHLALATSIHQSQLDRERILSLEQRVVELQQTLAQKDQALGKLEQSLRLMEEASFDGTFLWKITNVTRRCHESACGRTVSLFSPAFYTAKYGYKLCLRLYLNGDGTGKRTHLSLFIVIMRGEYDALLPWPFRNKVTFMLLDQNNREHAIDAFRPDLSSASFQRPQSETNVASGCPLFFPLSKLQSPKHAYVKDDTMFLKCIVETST
For A490V, the “effect of a mutation on the interaction” value was “with no effect”.

The next assay covers variants of B2. The settings on record: with tfcp2_human TFCP2, Q12800.
For S153P, the “effect of a mutation on the interaction” value is reported as “with no effect”.

Another assay covers variants of B3. The following applies: with rop1a_human ROPN1, Q9HAT0.
Chain of rop1a_human ROPN1, Q9HAT0 (Q9HAT0 whole entry): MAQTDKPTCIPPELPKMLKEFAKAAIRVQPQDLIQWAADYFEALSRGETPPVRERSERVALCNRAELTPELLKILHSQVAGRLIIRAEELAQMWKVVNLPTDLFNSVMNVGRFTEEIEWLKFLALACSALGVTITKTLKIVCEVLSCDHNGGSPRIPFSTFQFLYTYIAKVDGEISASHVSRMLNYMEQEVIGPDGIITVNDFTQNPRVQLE
Consider Q183R, for which the “effect of a mutation on the interaction” value is “with no effect”. On to R399C, for which the “effect of a mutation on the interaction” value is on record as “with no effect”.

Variants of B4 are the subject of a further assay. The settings on record: with creb3_human CREB3, O43889.
For the variant R72Q, the “effect of a mutation on the interaction” value is given as “with no effect”.

In the next assay the parent is B5. The following applies: with caco2_human CALCOCO2, Q13137.
For the variant R207G, the “effect of a mutation on the interaction” value was “disrupting interaction strength”.
